Assay results taken from patent US6638941B1, “Conformationallly constrained peptidomimetics as β-turn templates and modulators of SH3 domains” (OSI Pharmaceuticals, Inc., priority 1997, dated 2003).

How the values were obtained:
Lyn SH3 domain = target: T1, Lyn SH3 domain (Homo sapiens, UniProt P07948); assay: Inhibition of Lyn SH3-GST fusion protein binding to immobilized p85 proline-rich peptide, surface plasmon resonance (BIAcore); settings: Lyn SH3-GST fusion protein (1 μM) incubated with 0.01-100 μM spirolactam or non-biotinylated canonical peptide prior to injection; 25° C.; concentration behind the values not stated
T1 construct: Lyn SH3-GST fusion proteins were generated as previously described; made in house
Experimental: The ability of spirolactams to bind to SH3 domains was assessed by measuring their ability to inhibit the binding of cononical proline-rich peptide to purified Lyn SH3 domain. This inhibition was measured by surface plasmon resonance.
Lyn SH3-GST fusion proteins were generated as previously described (Pleiman, et al., Mol & Cellular Biol. 13(9):5877 (1993)), purified from bacterial lysates by glutathione affinity chromatography and eluted by competition. Aggregates were removed by size exclusion chromatography on Sephadex 75 (Pharmacia Biotech, Uppsala, Sweden).
Surface plasmon resonance measurements were performed on a BIAcore 2000 biosensor (BIAcore AB, Uppsala, Sweden). A synthetic canonical proline-rich peptide derived from phosphatidylinositol 3 kinase p85 (Pleiman, et al., (1994) Science 263:1609 (1994)); GGGKPRPPRPLPVAPGSS (SEQ ID NO:5) was immobilized on a prepared streptavidin coated sensor chip (Sensor Chip SA, BIAcore AB) via an N-terminal biotin moiety at a density of 0.05 pmol/mm^2. […] Dissociation was monitored during subsequent washing of the chip with running buffer for an additional 5.0 minutes. […]
To test their activity, 0.01-100 μM spirolactam or non-biotinylated canonical peptide was incubated with the fusion protein prior to injection. Data were recorded in real-time as sensorgrams and analyzed subsequently using BIA evaluation 2.0 software (BIAcore AB).

[1] = target: Lyn SH3-GST fusion protein; assay: SPR competition, compound (0.01-100 uM) incubated with Lyn SH3-GST before injection over immobilized biotinylated p85 peptide

T1 sequence (P07948 63-123 limits assumed): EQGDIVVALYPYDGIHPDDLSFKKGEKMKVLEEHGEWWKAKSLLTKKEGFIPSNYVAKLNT

| Percent Binding (Relative binding affinity to SH3 domain) (Lyn SH3 domain) [%] | Percent Binding [1] [%] | Molecule |
| --- | --- | --- |
| 81 |  | Ac-GGGKPRPPRPLPVAPGSS-OH [Ac-GGGKPRPPRPLPVAP-GSS-OH, non-biotinylated canonical proline-rich peptide derived from phosphatidylinositol 3 kinase p85, reference compound] |
|  | 81 | Ac-GGGKPRPPRPLPVAPGSS-OH [Ac-…-OH] |
